PMC5971111 (Nature structural & molecular biology, 2018)

Assays:
Assay in all cases: […]
Sec10 = target: T1, Sec10 (S. cerevisiae, UniProt Q06245 1-871)
T1 sequence: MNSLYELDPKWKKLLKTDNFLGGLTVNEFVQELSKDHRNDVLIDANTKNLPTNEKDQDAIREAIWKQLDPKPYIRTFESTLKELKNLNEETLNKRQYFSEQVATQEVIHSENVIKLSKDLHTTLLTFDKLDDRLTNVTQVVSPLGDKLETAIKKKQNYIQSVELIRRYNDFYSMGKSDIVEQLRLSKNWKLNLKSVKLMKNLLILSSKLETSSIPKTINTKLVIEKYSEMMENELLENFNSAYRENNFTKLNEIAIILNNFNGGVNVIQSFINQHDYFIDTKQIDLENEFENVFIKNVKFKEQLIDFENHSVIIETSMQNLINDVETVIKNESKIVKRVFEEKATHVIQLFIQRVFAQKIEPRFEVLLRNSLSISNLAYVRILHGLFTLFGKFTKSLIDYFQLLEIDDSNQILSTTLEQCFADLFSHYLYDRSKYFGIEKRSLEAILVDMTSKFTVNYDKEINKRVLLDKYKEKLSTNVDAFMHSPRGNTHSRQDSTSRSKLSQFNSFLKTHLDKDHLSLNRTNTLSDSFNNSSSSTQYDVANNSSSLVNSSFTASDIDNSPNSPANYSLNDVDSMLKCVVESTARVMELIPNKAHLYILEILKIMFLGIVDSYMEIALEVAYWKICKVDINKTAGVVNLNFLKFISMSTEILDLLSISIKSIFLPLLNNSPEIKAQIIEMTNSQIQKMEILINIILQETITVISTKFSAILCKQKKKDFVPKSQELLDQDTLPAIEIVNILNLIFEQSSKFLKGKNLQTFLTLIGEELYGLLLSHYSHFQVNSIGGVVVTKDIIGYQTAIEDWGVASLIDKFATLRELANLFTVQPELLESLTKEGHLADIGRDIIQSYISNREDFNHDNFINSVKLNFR

Sec8 = target: T2, Sec8 (S. cerevisiae, UniProt P32855 1-1065)
T2 sequence: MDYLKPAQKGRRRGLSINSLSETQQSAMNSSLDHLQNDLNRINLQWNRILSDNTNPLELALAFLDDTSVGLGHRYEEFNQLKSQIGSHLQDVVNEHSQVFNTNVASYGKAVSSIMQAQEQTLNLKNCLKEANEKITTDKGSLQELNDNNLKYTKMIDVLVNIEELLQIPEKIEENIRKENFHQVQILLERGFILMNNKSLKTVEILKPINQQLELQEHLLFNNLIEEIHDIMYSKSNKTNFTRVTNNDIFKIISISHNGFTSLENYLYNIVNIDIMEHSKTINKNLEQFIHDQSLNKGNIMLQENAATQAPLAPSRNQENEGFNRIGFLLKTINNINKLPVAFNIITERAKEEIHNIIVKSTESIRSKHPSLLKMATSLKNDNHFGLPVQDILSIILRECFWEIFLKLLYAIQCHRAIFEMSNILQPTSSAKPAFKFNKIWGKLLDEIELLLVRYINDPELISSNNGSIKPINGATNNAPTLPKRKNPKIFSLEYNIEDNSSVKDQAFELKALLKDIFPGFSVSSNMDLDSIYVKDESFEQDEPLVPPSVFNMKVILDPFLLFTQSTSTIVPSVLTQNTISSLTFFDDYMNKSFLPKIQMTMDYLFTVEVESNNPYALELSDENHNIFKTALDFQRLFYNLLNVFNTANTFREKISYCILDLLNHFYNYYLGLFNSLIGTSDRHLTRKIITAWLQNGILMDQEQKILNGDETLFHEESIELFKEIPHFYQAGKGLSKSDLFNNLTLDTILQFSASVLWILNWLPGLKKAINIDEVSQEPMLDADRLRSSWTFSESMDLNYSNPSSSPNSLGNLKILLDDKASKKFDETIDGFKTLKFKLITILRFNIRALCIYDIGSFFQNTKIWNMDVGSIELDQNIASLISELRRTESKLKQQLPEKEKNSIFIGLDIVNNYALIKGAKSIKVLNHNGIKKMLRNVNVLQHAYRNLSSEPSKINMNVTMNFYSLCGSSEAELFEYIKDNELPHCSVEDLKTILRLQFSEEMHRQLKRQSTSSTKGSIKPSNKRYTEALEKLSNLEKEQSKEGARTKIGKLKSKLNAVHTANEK

Sec5 = target: T3, Sec5 (S. cerevisiae, UniProt P89102 1-971)
T3 sequence: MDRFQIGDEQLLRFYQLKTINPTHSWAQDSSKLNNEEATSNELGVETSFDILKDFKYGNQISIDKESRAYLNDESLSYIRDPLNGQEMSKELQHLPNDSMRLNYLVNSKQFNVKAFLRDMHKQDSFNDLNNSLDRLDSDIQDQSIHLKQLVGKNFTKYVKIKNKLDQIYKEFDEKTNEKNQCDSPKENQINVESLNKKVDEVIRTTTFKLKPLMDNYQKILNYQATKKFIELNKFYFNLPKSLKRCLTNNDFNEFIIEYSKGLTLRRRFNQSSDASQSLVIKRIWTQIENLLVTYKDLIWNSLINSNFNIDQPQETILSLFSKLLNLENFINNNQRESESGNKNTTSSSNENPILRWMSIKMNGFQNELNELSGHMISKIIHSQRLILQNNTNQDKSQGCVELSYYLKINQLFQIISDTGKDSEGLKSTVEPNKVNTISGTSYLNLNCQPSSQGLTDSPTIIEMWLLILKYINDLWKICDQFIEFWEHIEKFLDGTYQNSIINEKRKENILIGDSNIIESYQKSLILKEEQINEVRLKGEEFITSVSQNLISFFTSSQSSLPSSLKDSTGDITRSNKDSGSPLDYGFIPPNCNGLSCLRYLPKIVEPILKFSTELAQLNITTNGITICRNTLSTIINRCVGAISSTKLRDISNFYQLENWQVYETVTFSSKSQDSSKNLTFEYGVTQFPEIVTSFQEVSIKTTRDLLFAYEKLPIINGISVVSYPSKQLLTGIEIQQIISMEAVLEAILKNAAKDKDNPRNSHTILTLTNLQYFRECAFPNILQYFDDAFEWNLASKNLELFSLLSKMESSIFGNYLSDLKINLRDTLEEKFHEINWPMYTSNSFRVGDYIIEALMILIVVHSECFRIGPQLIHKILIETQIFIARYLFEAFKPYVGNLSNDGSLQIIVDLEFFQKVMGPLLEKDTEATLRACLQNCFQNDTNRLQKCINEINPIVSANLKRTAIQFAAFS

Measured: binding result

B1: Exo84 (natural protein)
chain: MVEFSLKKARNNWKHVKKSASSPAKQKTPPSPAKPKQKTKKNPYSDLKDPATSYTLPTINARERSRVATSMQRRLSIHNTNYAPPTLDYSMPLPDMPNMIVPNDNVDSSHNNSSFTTENESVSSKGPSNSLNLSTADLSLNDSSYNKVPARSAMRNTVNPSGSNDPFNNSTSLRKMLANPHFNAKDFVHDKLGNASAITIDKFTSNLTDLSIQVQEEVKLNINKSYNEIMTVNNDLNVAMLELKRVRANINDLNEVLDQCTKIAEKRLQLQDQIDQERQGNFNNVESHSNSPALLPPLKAGQNGNLMRRDRSSVLILEKFWDTELDQLFKNVEGAQKFINSTKGRHILMNSANWMELNTTTGKPLQMVQIFILNDLVLIADKSRDKQNDFIVSQCYPLKDVTVTQEEFSTKRLLFKFSNSNSSLYECRDADECSRLLDVIRKAKDDLCDIFHVEEENSKRIRESFRYLQSTQQTPGRENNRSPNKNKRRSMGGSITPGRNVTGAMDQYLLQNLTLSMHSRPRSRDMSSTAQRLKFLDEGVEEIDIELARLRFESAVETLLDIESQLEDLSERISDEELMLLNLISLKIEQRREAISSKLSQSILSSNEIVHLKSGTENMIKLGLPEQALDLFLQNRSNFIQDLILQIGSVDNPTNYLTQLAVIRFQTIKKTVEDFQDIFKELGAKISSILVDWCSDEVDNHFKLIDKQLLNDEMLSPGSIKSSRKQIDGLKAVGLDFVYKLDEFIKKNSDKIR
binds: all assays above
